Here are results for 8 molecules from PMC4239642, “trans-Acting Arginine Residues in the AAA+ Chaperone ClpB Allosterically Regulate the Activity through Inter- and Intradomain Communication*” (The Journal of Biological Chemistry, 2014).

The target in one data set is T1, ClpB NBD1-M M394C (Thermus thermophilus, UniProt Q9RA63 141-534, M394C).
T1 construct: ClpB from Thermus thermophilus, NBD1 and M-domain, amino acids 141-534; source: E. coli BL21 (DE3) RIL, purified
In words: cross-linking; intermolecular disulfide between two single-cysteine variants, 50 μM each, 50 μM copper phenanthroline, 2 mM ADP, 50 mM Tris/HCl pH 7.5, 50 mM KCl, 5 mM MgCl2, 1 h at 37 °C; dimer separated on Superdex 200 26/60, non-reducing SDS-PAGE. The settings on record: both partners purified.

Data set [1] deals with the molecule itself. Put plainly: SEC-MALS; Superdex 200 10/300 GL with multiangle static light scattering (SLS), buffer A (50 mM Tris/HCl pH 7.5, 50 mM KCl, 5 mM MgCl2, 2 mM EDTA); running buffer nucleotide-free or with 2 mM ADP or 2 mM ATP; 40 μl of 100 μM injected, about 2 μM at the detector; self-association induced by nucleotide. A general note: Size exclusion chromatography separates by hydrodynamic size, large species first.

The target of a further data set is T2, full-length ClpB M394C (Thermus thermophilus, UniProt Q9RA63 1-854, M394C).
T2 construct: ClpB from Thermus thermophilus, full-length protein; source: E. coli BL21 (DE3) RIL, purified
Put plainly: cross-linking; intermolecular disulfide between two single-cysteine variants, 50 μM each, 50 μM copper phenanthroline, 2 mM ADP, 50 mM Tris/HCl pH 7.5, 50 mM KCl, 5 mM MgCl2, 1 h at 37 °C; dimer separated on Superdex 200 26/60, non-reducing SDS-PAGE. The settings on record: both partners purified.

Data set [2] deals with the molecule itself. In words: dynamic light scattering; 1–30 μM protein (monomeric units) in buffer A with 2 mM ATP and an ATP-regenerating system (phosphoenolpyruvate, pyruvate kinase); self-association.
A further data set addresses T3, ClpB NBD1-M A390C (Thermus thermophilus, UniProt Q9RA63 141-534, A390C).
T3 construct: ClpB from Thermus thermophilus, NBD1 and M-domain, amino acids 141-534; source: E. coli BL21 (DE3) RIL, purified
In words: cross-linking; intermolecular disulfide between two single-cysteine variants, 50 μM each, 50 μM copper phenanthroline, 2 mM ADP, 50 mM Tris/HCl pH 7.5, 50 mM KCl, 5 mM MgCl2, 1 h at 37 °C; dimer separated on Superdex 200 26/60, non-reducing SDS-PAGE. The settings on record: both partners purified.

B1: ClpB NBD1-M P221C (domain or fragment, Thermus thermophilus, UniProt Q9RA63 141-534, looked up)
chain: VQTEHAESTYNALEQYGIDLTRLAAEGKLDPVIGRDEEIRRVIQILLRRTKNNPVLIGEPGVGKTAIVEGLAQRIVKGDVCEGLKGKRIVSLQMGSLLAGAKYRGEFEERLKAVIQEVVQSQGEVILFIDELHTVVGAGKAEGAVDAGNMLKPALARGELRLIGATTLDEYREIEKDPALERRFQPVYVDEPTVEETISILRGLKEKYEVHHGVRISDSAIIAAATLSHRYITERRLPDKAIDLIDEAAARLRMALESAPEEIDALERKKLQLEIEREALKKEKDPDSQERLKAIEAEIAKLTEEIAKLRAEWEREREILRKLREAQHRLDEVRREIELAERQYDLNRAAELRYGELPKLEAEVEALSEKLRGARFVRLEVTEEDIAEIVSRWT
notes: ClpB from Thermus thermophilus, NBD1 and M-domain, amino acids 141-534; source: E. coli BL21 (DE3) RIL, purified
For B1, the binding result in the data set with ClpB NBD1-M M394C is on record as “binds”.

B2: cross-linked NBD1-M dimer wild-type (P221C/M394C disulfide) (complex)
chain 1: VQTEHAESTYNALEQYGIDLTRLAAEGKLDPVIGRDEEIRRVIQILLRRTKNNPVLIGEPGVGKTAIVEGLAQRIVKGDVCEGLKGKRIVSLQMGSLLAGAKYRGEFEERLKAVIQEVVQSQGEVILFIDELHTVVGAGKAEGAVDAGNMLKPALARGELRLIGATTLDEYREIEKDPALERRFQPVYVDEPTVEETISILRGLKEKYEVHHGVRISDSAIIAAATLSHRYITERRLPDKAIDLIDEAAARLRMALESAPEEIDALERKKLQLEIEREALKKEKDPDSQERLKAIEAEIAKLTEEIAKLRAEWEREREILRKLREAQHRLDEVRREIELAERQYDLNRAAELRYGELPKLEAEVEALSEKLRGARFVRLEVTEEDIAEIVSRWT
chain 2: not shown
modifications: intermolecular disulfide bond between P221C of this chain and M394C of the other chain | intermolecular disulfide bond between M394C of this chain and P221C of the other chain
notes: ClpB from Thermus thermophilus, NBD1 and M-domain, amino acids 141-534; also called cross-linked wild-type dimer; P221C/M394C dimer; source: E. coli BL21 (DE3) RIL, purified; the two cysteine variants oxidised with copper phenanthroline, dimer separated on Superdex 200
For orientation: stoichiometry N means the number of molecules, sites or subunits per partner or assembly. On to B2, for which the “stoichiometry N” value in data set [1] is ~4 NBD1-M subunits (two cross-linked dimers).

B3: full-length ClpB P221C (natural protein, Thermus thermophilus, UniProt Q9RA63 1-854, looked up)
chain: MNLERWTQAAREALAQAQVLAQRMKHQAIDLPHLWAVLLKDERSLAWRLLEKAGADPKALKELQERELARLPKVEGAEVGQYLTSRLSGALNRAEALMEELKDRYVAVDTLVLALAEATPGLPGLEALKGALKELRGGRTVQTEHAESTYNALEQYGIDLTRLAAEGKLDPVIGRDEEIRRVIQILLRRTKNNPVLIGEPGVGKTAIVEGLAQRIVKGDVCEGLKGKRIVSLQMGSLLAGAKYRGEFEERLKAVIQEVVQSQGEVILFIDELHTVVGAGKAEGAVDAGNMLKPALARGELRLIGATTLDEYREIEKDPALERRFQPVYVDEPTVEETISILRGLKEKYEVHHGVRISDSAIIAAATLSHRYITERRLPDKAIDLIDEAAARLRMALESAPEEIDALERKKLQLEIEREALKKEKDPDSQERLKAIEAEIAKLTEEIAKLRAEWEREREILRKLREAQHRLDEVRREIELAERQYDLNRAAELRYGELPKLEAEVEALSEKLRGARFVRLEVTEEDIAEIVSRWTGIPVSKLLEGEREKLLRLEEELHKRVVGQDEAIRAVADAIRRARAGLKDPNRPIGSFLFLGPTGVGKTELAKTLAATLFDTEEAMIRIDMTEYMEKHAVSRLIGAPPGYVGYEEGGQLTEAVRRRPYSVILFDEIEKAHPDVFNILLQILDDGRLTDSHGRTVDFRNTVIILTSNLGSPLILEGLQKGWPYERIRDEVFKVLQQHFRPEFLNRLDEIVVFRPLTKEQIRQIVEIQLSYLRARLAEKRISLELTEAAKDFLAERGYDPVFGARPLRRVIQRELETPLAQKILAGEVKEGDRVQVDVGPAGLVFAVPARVEA
notes: ClpB from Thermus thermophilus, full-length protein; source: E. coli BL21 (DE3) RIL, purified
Consider B3, for which, in the data set with full-length ClpB M394C, the binding result is “binds”.

B4: ClpB NBD1-M wild type (domain or fragment)
chain: not shown
notes: ClpB from Thermus thermophilus, NBD1 and M-domain, amino acids 141-534; also called unlinked NBD1-M wild type; ClpB construct comprising residues 141-534; source: E. coli BL21 (DE3) RIL, purified
Take B4: the “stoichiometry N” value in data set [2] turned out to be 3.

B5: ClpB NBD1-M R322A (domain or fragment)
chain: not shown
notes: ClpB from Thermus thermophilus, NBD1 and M-domain, amino acids 141-534; also called single mutant R322A; source: E. coli BL21 (DE3) RIL, purified
Turning to B5, the “stoichiometry N” value in data set [2] came out at 2.

B6: ClpB NBD1-M R322A/R323A (domain or fragment)
chain: not shown
notes: ClpB from Thermus thermophilus, NBD1 and M-domain, amino acids 141-534; also called double mutant; source: E. coli BL21 (DE3) RIL, purified
In the case of B6, the “stoichiometry N” value in data set [2] stood at 2.

B7: ClpB NBD1-M Q184C (domain or fragment)
chain: not shown
notes: as for B1
Turning to B7, in the data set with ClpB NBD1-M A390C, the binding result is reported as “binds”.

B8: ClpB NBD1-M R323A (domain or fragment)
chain: not shown
notes: ClpB from Thermus thermophilus, NBD1 and M-domain, amino acids 141-534; also called single mutant R323A; source: E. coli BL21 (DE3) RIL, purified
With B8, in data set [2], the “stoichiometry N” value came to 2.
